Measurements published in publication PMC9482650, “Quantitative fragmentomics allow affinity mapping of interactomes” (Nature Communications, 2022).

Experiments:
Experiment in all cases: holdup assay
Parameters in all cases: key: below the threshold = too weak to quantify, mostly under pKd 3.1 to 4
[1] = biological target: MAGI2_6, Q86UL8
[2] = biological target: T1, GRIP1_5, Q9Y3R0
T1 sequence (Q9Y3R0 568-668, limits assumed, looked up): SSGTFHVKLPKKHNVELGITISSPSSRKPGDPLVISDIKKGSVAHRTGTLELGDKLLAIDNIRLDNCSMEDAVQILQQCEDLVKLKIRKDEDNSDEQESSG

[3] = biological target: T2, SNTG2, Q9NY99
T2 sequence (Q9NY99 68-166, limits assumed, looked up): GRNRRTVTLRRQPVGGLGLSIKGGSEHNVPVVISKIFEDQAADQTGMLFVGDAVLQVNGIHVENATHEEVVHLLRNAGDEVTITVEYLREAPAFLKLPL

[4] = biological target: T3, GRIP1_4, Q9Y3R0
T3 sequence (Q9Y3R0 467-571, limits assumed, looked up): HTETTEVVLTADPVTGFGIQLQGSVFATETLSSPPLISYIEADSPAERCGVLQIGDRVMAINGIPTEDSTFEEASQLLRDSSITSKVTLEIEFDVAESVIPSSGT

[5] = biological target: T4, FRMPD1, Q5SYB0
T4 sequence (Q5SYB0 52-145, limits assumed, looked up): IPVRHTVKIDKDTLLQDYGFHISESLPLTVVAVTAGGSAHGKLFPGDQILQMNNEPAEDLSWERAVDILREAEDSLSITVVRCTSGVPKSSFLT

[6] = biological target: T5, PDZD7_3, Q9H5P4
T5 sequence (Q9H5P4 857-944, limits assumed, looked up): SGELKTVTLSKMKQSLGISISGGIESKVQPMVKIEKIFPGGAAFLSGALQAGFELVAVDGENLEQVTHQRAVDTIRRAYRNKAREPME

[7] = biological target: T6, APBA3_1, O96018
T6 sequence (O96018 389-490, limits assumed, looked up): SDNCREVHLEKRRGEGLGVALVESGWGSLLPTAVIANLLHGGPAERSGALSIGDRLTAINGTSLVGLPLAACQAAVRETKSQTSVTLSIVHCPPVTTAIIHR

[8] = biological target: T7, HTRA3, P83110
T7 sequence (P83110 354-453, limits assumed, looked up): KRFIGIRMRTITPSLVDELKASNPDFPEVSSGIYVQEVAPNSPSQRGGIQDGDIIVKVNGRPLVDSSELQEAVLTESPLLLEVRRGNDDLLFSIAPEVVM

[9] = biological target: T8, DLG3_2, Q92796
T8 sequence (Q92796 221-321, limits assumed, looked up): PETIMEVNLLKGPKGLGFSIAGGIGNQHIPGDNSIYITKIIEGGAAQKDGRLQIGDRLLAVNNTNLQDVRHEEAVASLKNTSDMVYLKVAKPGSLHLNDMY

[10] = biological target: MAGI2_2, Q86UL8
MAGI2_2, Q86UL8, sequence (Q86UL8 410-522): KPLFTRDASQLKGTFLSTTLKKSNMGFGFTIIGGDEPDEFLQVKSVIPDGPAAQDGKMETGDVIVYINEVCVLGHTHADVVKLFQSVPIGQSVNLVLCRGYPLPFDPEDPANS

[11] = biological target: Inadl_3, Q8NI35
Inadl_3, Q8NI35, sequence (Q8NI35 359-469): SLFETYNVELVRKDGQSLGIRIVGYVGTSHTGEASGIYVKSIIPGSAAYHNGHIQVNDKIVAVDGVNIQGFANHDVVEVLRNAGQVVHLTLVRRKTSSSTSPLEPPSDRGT

[12] = biological target: GRIP2_7, Q9C0E4
GRIP2_7, Q9C0E4, sequence (Q9C0E4 934-1023): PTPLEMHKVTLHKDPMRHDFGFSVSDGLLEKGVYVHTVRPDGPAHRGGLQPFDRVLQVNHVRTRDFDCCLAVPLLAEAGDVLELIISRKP

[13] = biological target: IL16_3, Q14005
IL16_3, Q14005, sequence (Q14005 1107-1207): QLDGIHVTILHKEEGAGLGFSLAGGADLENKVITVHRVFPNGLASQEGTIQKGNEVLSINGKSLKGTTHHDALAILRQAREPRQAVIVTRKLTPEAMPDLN

[14] = biological target: T9, TJP3_3, O95049
T9 sequence (O95049 375-456, limits assumed, looked up): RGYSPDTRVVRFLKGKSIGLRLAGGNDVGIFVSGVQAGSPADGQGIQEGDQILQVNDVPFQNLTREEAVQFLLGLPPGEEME

[15] = biological target: GORASP1, Q9BQQ3
GORASP1, Q9BQQ3, sequence (Q9BQQ3 1-208): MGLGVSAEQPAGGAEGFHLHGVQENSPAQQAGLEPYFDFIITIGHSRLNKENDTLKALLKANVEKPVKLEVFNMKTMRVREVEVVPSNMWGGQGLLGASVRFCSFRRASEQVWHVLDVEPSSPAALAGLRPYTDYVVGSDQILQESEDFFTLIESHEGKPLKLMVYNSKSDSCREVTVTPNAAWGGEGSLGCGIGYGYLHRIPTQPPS

[16] = biological target: TJP1_3, Q07157
TJP1_3, Q07157, sequence (Q07157 416-512): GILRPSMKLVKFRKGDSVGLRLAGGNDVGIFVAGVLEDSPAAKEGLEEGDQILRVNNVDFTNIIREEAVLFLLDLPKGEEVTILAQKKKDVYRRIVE

[17] = biological target: T10, SIPA1L2, Q9P2F8
T10 sequence (Q9P2F8 945-1036, limits assumed, looked up): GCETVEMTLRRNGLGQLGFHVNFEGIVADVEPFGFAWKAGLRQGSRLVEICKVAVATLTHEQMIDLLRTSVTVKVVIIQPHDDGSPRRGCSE

[18] = biological target: FRMPD4, Q14CM0
FRMPD4, Q14CM0, sequence (Q14CM0 67-160): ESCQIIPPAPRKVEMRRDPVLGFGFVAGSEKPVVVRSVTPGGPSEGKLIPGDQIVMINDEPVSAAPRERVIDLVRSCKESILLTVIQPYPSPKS

[19] = biological target: HTRA2, O43464
HTRA2, O43464, sequence (O43464 355-458): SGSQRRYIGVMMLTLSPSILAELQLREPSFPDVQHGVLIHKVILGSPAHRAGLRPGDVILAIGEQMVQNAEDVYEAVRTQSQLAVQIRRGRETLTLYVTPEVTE

[20] = biological target: LNX1_2, Q8TBB1
LNX1_2, Q8TBB1, sequence (Q8TBB1 371-470): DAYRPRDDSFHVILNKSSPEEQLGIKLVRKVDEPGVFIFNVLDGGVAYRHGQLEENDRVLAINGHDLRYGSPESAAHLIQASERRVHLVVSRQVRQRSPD

[21] = biological target: HTRA1, Q92743
HTRA1, Q92743, sequence (Q92743 360-477): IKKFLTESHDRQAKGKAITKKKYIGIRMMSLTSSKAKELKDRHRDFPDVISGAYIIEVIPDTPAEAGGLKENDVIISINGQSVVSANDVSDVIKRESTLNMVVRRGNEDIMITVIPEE

[22] = biological target: FRMPD2_3, Q68DX3
FRMPD2_3, Q68DX3, sequence (Q68DX3 1073-1166): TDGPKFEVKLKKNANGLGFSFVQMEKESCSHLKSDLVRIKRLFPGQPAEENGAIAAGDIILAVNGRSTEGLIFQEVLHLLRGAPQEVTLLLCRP

[23] = biological target: NHERF4_4, Q86UT5
NHERF4_4, Q86UT5, sequence (Q86UT5 464-550): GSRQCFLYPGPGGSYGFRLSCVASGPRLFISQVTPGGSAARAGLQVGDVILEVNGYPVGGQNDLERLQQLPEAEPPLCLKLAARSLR

[24] = biological target: LIMK2, P53671
LIMK2, P53671, sequence (P53671 143-248): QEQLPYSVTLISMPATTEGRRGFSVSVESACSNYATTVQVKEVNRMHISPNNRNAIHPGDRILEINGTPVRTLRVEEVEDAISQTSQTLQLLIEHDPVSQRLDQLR

[25] = biological target: Inadl_5, Q8NI35
Inadl_5, Q8NI35, sequence (Q8NI35 673-780): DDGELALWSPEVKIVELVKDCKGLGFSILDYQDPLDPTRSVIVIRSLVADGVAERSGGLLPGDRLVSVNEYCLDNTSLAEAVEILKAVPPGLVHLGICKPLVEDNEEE

[26] = biological target: T11, PDZD2_2, O15018
T11 sequence (O15018 329-429, limits assumed, looked up): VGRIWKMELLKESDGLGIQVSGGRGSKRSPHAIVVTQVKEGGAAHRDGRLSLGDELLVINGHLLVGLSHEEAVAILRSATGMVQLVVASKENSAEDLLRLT

[27] = plain residues with an end cap or a label only (N-terminal biotin on a linker: ttds)
[28] = plain residues with an end cap or a label only (N-terminal biotin on a linker: ado-ado)

MAGI2_6, Q86UL8, sequence (Q86UL8 1141-1229): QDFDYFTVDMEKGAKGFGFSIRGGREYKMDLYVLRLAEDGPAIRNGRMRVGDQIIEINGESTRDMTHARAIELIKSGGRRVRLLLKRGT

In the case of PKRPFVESNV [TANC2, Q9HCD6], the pKd [1, 27] is reported as 3.76, the pKd [2, 27] is reported as “below the threshold” and the pKd [3, 27] is reported as 4.37. For the same binder, the pKd [4, 27] was “below the threshold”, the pKd [5, 27] was “below the threshold” and the pKd [6, 27] was “below the threshold”. The pKd [7, 27] was “below the threshold”, the pKd [8, 27] was “below the threshold” and the pKd [9, 27] was 4.54. For the same binder, the pKd [10, 27] was “below the threshold”, the pKd [11, 27] was “below the threshold” and the pKd [12, 27] was “below the threshold”. For the same binder, the pKd [13, 27] was “below the threshold”, the pKd [14, 27] was “below the threshold” and the pKd [15, 27] was “below the threshold”. For the same binder, the pKd [16, 27] was “below the threshold”, the pKd [17, 27] was “below the threshold” and the pKd [18, 27] was “below the threshold”. For the same binder, the pKd [19, 27] was “below the threshold”, the pKd [20, 27] was “below the threshold” and the pKd [21, 27] was “below the threshold”. The pKd [22, 27] was “below the threshold”, the pKd [23, 27] was “below the threshold” and the pKd [24, 27] was “below the threshold”. The pKd [25, 27] was “below the threshold” and the pKd [26, 27] was 4.52.

LDSQIQETSI [MAP4, P27816] was tested, and the pKd [1, 27] was 4.05, the pKd [2, 27] was “below the threshold” and the pKd [3, 27] was 5.22. For the same binder, the pKd [4, 27] was “below the threshold”, the pKd [5, 27] was “below the threshold” and the pKd [6, 27] was 5.63. The pKd [7, 27] was “below the threshold”, the pKd [8, 27] was “below the threshold” and the pKd [9, 27] was 3.93. For the same binder, the pKd [10, 27] was “below the threshold”, the pKd [11, 27] was “below the threshold” and the pKd [12, 27] was “below the threshold”. The pKd [13, 27] was “below the threshold”, the pKd [14, 27] was “below the threshold” and the pKd [15, 27] was “below the threshold”. The pKd [16, 27] was “below the threshold”, the pKd [17, 27] was “below the threshold” and the pKd [18, 27] was “below the threshold”. For the same binder, the pKd [19, 27] was “below the threshold”, the pKd [20, 27] was “below the threshold” and the pKd [21, 27] was “below the threshold”. The pKd [22, 27] was “below the threshold”, the pKd [23, 27] was “below the threshold” and the pKd [24, 27] was “below the threshold”. The pKd [25, 27] was “below the threshold” and the pKd [26, 27] was 4.36.

With VNKVWDQSSV [CIT, O14578] the pKd [1, 27] was 3.57, the pKd [2, 27] was “below the threshold” and the pKd [3, 27] was “below the threshold”. The pKd [4, 27] was “below the threshold”, the pKd [5, 27] was “below the threshold” and the pKd [6, 27] was “below the threshold”. For the same binder, the pKd [7, 27] was “below the threshold”, the pKd [8, 27] was “below the threshold” and the pKd [9, 27] was “below the threshold”. The pKd [10, 27] was “below the threshold”, the pKd [11, 27] was “below the threshold” and the pKd [12, 27] was “below the threshold”. The pKd [13, 27] was “below the threshold”, the pKd [14, 27] was “below the threshold” and the pKd [15, 27] was “below the threshold”. The pKd [16, 27] was “below the threshold”, the pKd [17, 27] was “below the threshold” and the pKd [18, 27] was “below the threshold”. The pKd [19, 27] was “below the threshold”, the pKd [20, 27] was “below the threshold” and the pKd [21, 27] was “below the threshold”. For the same binder, the pKd [22, 27] was “below the threshold”, the pKd [23, 27] was “below the threshold” and the pKd [24, 27] was “below the threshold”. The pKd [25, 27] was “below the threshold” and the pKd [26, 27] was 4.86.

In the case of SEKHFRETEV [HTLV1-TAX1, P03409], the pKd [1, 27] is reported as 4.43, the pKd [2, 27] is reported as “below the threshold” and the pKd [3, 27] is reported as 4.12. The pKd [4, 27] was “below the threshold”, the pKd [5, 27] was “below the threshold” and the pKd [6, 27] was 4.82. The pKd [7, 27] was “below the threshold”, the pKd [8, 27] was “below the threshold” and the pKd [9, 27] was 5.56. It also gave a pKd [10, 27] of 4.57, a pKd [11, 27] of 3.69 and a pKd [12, 27] of 3.75. For the same binder, the pKd [13, 27] was “below the threshold”, the pKd [14, 27] was “below the threshold” and the pKd [15, 27] was “below the threshold”. For the same binder, the pKd [16, 27] was “below the threshold”, the pKd [17, 27] was “below the threshold” and the pKd [18, 27] was “below the threshold”. The pKd [19, 27] was “below the threshold”, the pKd [20, 27] was 3.71 and the pKd [21, 27] was 3.97. For the same binder, the pKd [22, 27] was 3.77, the pKd [23, 27] was “below the threshold” and the pKd [24, 27] was “below the threshold”. For the same binder, the pKd [25, 27] was “below the threshold” and the pKd [26, 27] was 4.44.

GFGEERESIL [KIDINS220, Q9ULH0] was tested, and the pKd [1, 28] was 3.67, the pKd [2, 28] was “below the threshold” and the pKd [3, 28] was 4.31. The pKd [4, 28] was “below the threshold”, the pKd [5, 28] was “below the threshold” and the pKd [6, 28] was 5.03. For the same binder, the pKd [7, 28] was “below the threshold”, the pKd [8, 28] was “below the threshold” and the pKd [9, 28] was “below the threshold”. The pKd [10, 28] was “below the threshold”, the pKd [11, 28] was 3.65 and the pKd [12, 28] was “below the threshold”. The pKd [13, 28] was “below the threshold”, the pKd [14, 28] was “below the threshold” and the pKd [15, 28] was “below the threshold”. For the same binder, the pKd [16, 28] was “below the threshold”, the pKd [17, 28] was “below the threshold” and the pKd [18, 28] was 3.92. For the same binder, the pKd [19, 28] was “below the threshold”, the pKd [20, 28] was “below the threshold” and the pKd [21, 28] was 4.6. For the same binder, the pKd [22, 28] was “below the threshold”, the pKd [23, 28] was “below the threshold” and the pKd [24, 28] was “below the threshold”. For the same binder, the pKd [25, 28] was “below the threshold” and the pKd [26, 28] was 4.65.
